B1: Coiled-coil domain-containing protein 8 (Homo sapiens), Q9H0W5 (parent)
chain: MLQIGEDVDYLLIPREVRLAGGVWRVISKPATKEAEFRERLTQFLEEEGRTLEDVARIMEKSTPHPPQPPKKPKEPRVRRRVQQMVTPPPRLVVGTYDSSNASDSEFSDFETSRDKSRQGPRRGKKVRKMPVSYLGSKFLGSDLESEDDEELVEAFLRRQEKQPSAPPARRRVNLPVPMFEDNLGPQLSKADRWREYVSQVSWGKLKRRVKGWAPRAGPGVGEARLASTAVESAGVSSAPEGTSPGDRLGNAGDVCVPQASPRRWRPKINWASFRRRRKEQTAPTGQGADIEADQGGEAADSQREEAIADQREGAAGNQRAGAPADQGAEAADNQREEAADNQRAGAPAEEGAEAADNQREEAADNQRAEAPADQRSQGTDNHREEAADNQRAEAPADQGSEVTDNQREEAVHDQRERAPAVQGADNQRAQARAGQRAEAAHNQRAGAPGIQEAEVSAAQGTTGTAPGARARKQVKTVRFQTPGRFSWFCKRRRAFWHTPRLPTLPKRVPRAGEARNLRVLRAEARAEAEQGEQEDQL
partner: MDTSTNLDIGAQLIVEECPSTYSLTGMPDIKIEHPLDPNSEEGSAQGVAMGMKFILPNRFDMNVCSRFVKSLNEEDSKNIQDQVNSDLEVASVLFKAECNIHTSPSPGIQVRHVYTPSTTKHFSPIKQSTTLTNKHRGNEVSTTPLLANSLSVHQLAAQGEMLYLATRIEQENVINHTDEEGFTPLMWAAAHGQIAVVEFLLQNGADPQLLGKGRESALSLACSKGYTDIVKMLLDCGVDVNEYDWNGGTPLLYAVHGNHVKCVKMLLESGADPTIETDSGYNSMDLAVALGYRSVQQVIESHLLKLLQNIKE
B2: Ankyrin repeat family A protein 2 (Homo sapiens), Q9H9E1 (parent)
chain: B1 partner
partner: B1 chain

Variants of: B1
Settings: with anra2_human ANKRA2, Q9H9E1

Variant	effect of a mutation on the interaction
MLQIGEDVDYLLIPREVRLAGGVWRVISKPATKEAEFRERLTQFLEEEGRTLEDVARIMEKSTPHPPQPPKKPKEPRVRRRVQQMVTPPPRLVVGTYDSSNASDSEFSDFETSRDKSRQGPRRGKKVRKMPVSYLGSKFLGSDLESEDDEELVEAFLRRQEKQPSAPPARRRVNLPVPMFEDNLGPQLSKADRWREYVSQVSWGKLKRRVKGWAPRAGPGVGEARLASTAVESAGVSSAPEGTSPGDRLGNAGDVCVPQASPRRWRPKINWASFRRRRKEQTAPTGQGADIEADQGGEAADSQREEAIADQREGAAGNQRAGAPADQGAEAADNQREEAADNQRAGAPAEEGAEAADNQREEAADNQRAEAPADQRSQGTDNHREEAADNQRAEAPADQGSEVTDNQREEAVHDQRERAPAVQGADNQRAQARAGQRAEAAHNQRAGAPGIQEAEVSAAQGTTGTAPGARARKQVKTVRFQTPGRFSWFCKRRRAFWHTPRLATLPKRVPRAGEARNLRVLRAEARAEAEQGEQEDQL [P503A]	disrupting interaction strength
MLQIGEDVDYLLIPREVRLAGGVWRVISKPATKEAEFRERLTQFLEEEGRTLEDVARIMEKSTPHPPQPPKKPKEPRVRRRVQQMVTPPPRLVVGTYDSSNASDSEFSDFETSRDKSRQGPRRGKKVRKMPVSYLGSKFLGSDLESEDDEELVEAFLRRQEKQPSAPPARRRVNLPVPMFEDNLGPQLSKADRWREYVSQVSWGKLKRRVKGWAPRAGPGVGEARLASTAVESAGVSSAPEGTSPGDRLGNAGDVCVPQASPRRWRPKINWASFRRRRKEQTAPTGQGADIEADQGGEAADSQREEAIADQREGAAGNQRAGAPADQGAEAADNQREEAADNQRAGAPAEEGAEAADNQREEAADNQRAEAPADQRSQGTDNHREEAADNQRAEAPADQGSEVTDNQREEAVHDQRERAPAVQGADNQRAQARAGQRAEAAHNQRAGAPGIQEAEVSAAQGTTGTAPGARARKQVKTVRFQTPGRFSWFCKRRRAFWHTPRLPALPKRVPRAGEARNLRVLRAEARAEAEQGEQEDQL [T504A]	disrupting interaction strength

Variants of: B2
Settings: with ccdc8_human CCDC8, Q9H0W5

Variant	effect of a mutation on the interaction
MDTSTNLDIGAQLIVEECPSTYSLTGMPDIKIEHPLDPNSEEGSAQGVAMGMKFILPNRFDMNVCSRFVKSLNEEDSKNIQDQVNSDLEVASVLFKAECNIHTSPSPGIQVRHVYTPSTTKHFSPIKQSTTLTNKHRGNEVSTTPLLANSLSVHQLAAQGEMLYLATRIEQENVINHTDEEGFTPLMAAAAHGQIAVVEFLLQNGADPQLLGKGRESALSLACSKGYTDIVKMLLDCGVDVNEYDWNGGTPLLYAVHGNHVKCVKMLLESGADPTIETDSGYNSMDLAVALGYRSVQQVIESHLLKLLQNIKE [W188A]	disrupting interaction strength
MDTSTNLDIGAQLIVEECPSTYSLTGMPDIRIEHPLDPNSEEGSAQGVAMGMKFILPNRFDMNVCSRFVKSLNEEDSKNIQDQVNSDLEVASVLFKAECNIHTSPSPGIQVRHVYTPSTTKHFSPIKQSTTLTNKHRGNEVSTTPLLANSLSVHQLAAQGEMLYLATRIEQENVINHTDEEGFTPLMWAAAHGQIAVVEFLLQNGADPQLLGKGRESALSLACSKGYTDIVKMLLDCGVDVNEYDWNGGTPLLYAVHGNHVKCVKMLLESGADPTIETDSGYNSMDLAVALGYRSVQQVIESHLLKLLQNIKE [K31R]	with no effect
